Source: patent US5939263

Target: murine neuropeptide Y Yx receptor (murine)
Assay: displacement of ^125 I-PYY (90 pM) from membranes of COS-7 cells transfected with the murine NPY Yx receptor

IC50 [µM]	Substance
0.134	NPY(13-36) (peptide)
0.016	NPY(2-36) (peptide)
0.006	Neuropeptide Y
0.009	Leu^31, Pro^34 !NPY (peptide)
0.014	peptide YY
